Results reported in article PMC9396414 (2022).

Target: RbPLX7
Assay: SPR

B1: biotinylated human Plexin-B1 (20–535)-Avi-6xHis (domain or fragment)
chain: LQPLPPTAFTPNGTYLQHLARDPTSGTLYLGATNFLFQLSPGLQLEATVSTGPVLDSRDCLPPVMPDECPQAQPTNNPNQLLLVSPGALVVCGSVHQGVCEQRRLGQLEQLLLRPERPGDTQYVAANDPAVSTVGLVAQGLAGEPLLFVGRGYTSRGVGGGIPPITTRALWPPDPQAAFSYEETAKLAVGRLSEYSHHFVSAFARGASAYFLFLRRDLQAQSRAFRAYVSRVCLRDQHYYSYVELPLACEGGRYGLIQAAAVATSREVAHGEVLFAAFSSAAPPTVGRPPSAAAGASGASALCAFPLDEVDRLANRTRDACYTREGRAEDGTEVAYIEYDVNSDCAQLPVDTLDAYPCGSDHTPSPMASRVPLEATPILEWPGIQLTAVAVTMEDGHTIAFLGDSQGQLHRVYLGPGSDGHPYSTQSIQQGSAVSRDLTFDGTFEHLYVMTQSTLLKVPVASCAQHLDCASCLAHRDPYCGWCVLLGRCSRRSECSRGQGPEQWLWSFQPELGCLQ
modifications: biotin on the Avi-tag (in vitro, BirA enzyme)
Q: How did the Kd turn out when B1 was run?
A: The Kd was 0.346 nM.
